Measurements as given in publication PMC5743843 (Protein Science : A Publication of the Protein Society, 2017).

T1: urease accessory protein UreH (Helicobacter pylori, UniProt Q09067 1-265)
T1 sequence: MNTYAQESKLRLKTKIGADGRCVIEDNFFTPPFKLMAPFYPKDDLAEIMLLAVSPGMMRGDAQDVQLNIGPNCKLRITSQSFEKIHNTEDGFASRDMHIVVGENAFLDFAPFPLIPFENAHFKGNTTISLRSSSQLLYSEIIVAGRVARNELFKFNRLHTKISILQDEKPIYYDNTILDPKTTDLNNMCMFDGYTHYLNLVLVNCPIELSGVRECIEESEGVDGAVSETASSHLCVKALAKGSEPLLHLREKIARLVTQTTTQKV

T2: extracellular region of Nectin-Like 2 (UniProt Q9BY67 45-374)
T2 sequence: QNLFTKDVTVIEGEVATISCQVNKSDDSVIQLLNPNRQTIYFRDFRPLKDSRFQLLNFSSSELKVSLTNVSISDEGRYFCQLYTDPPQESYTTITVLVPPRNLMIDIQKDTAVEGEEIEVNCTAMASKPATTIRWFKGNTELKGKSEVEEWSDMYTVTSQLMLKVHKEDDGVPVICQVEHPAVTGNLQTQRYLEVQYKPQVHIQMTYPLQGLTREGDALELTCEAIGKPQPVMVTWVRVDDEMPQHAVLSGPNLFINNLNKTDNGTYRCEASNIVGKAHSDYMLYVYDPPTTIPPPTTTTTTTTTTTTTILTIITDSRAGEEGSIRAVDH

T3: FtsL (E. coli, UniProt P0AEN4 1-121)
T3 sequence: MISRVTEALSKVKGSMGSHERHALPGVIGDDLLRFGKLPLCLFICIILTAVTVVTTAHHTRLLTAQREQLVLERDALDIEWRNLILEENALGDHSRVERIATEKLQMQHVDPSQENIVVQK

B1: urease accessory protein UreG (enzyme)
chain: MVKIGVCGPVGSGKTALIEALTRHMSKDYDMAVITNDIYTKEDAEFMCKNSVMPRERIIGVETGGCPHTAIREDASMNLEAVEEMHGRFPNLELLLIESGGDNLSATFNPELADFTIFVIDVAEGDKIPRKGGPGITRSDLLVINKIDLAPYVGADLKVMERDSKKMRGEKPFIFTNIRAKEGLDDVIAWIKRNALLED
B2: urease accessory protein UreF (natural protein)
chain: MDKGKSVKSTEKSVGMPPKTPKTDNNAHVDNEFLILQVNDAVFPIGSYTHSFGLETYIQQKKVTNKESALEYLKANLSSQFLYTEMLSLKLTYESALQQDLKKILGVEEVIMLSTSPMELRLANQKLGNRFIKTLQAMNELDMGEFFNAYAQKTKDPTHATSYGVFAASLGIELKKALRHYLYAQTSNMVINCVKSVPLSQNDGQKILLSLQSPFNQLIEKTLELDESHLCTASVQNDIKAMQHESLYSRLYMS
B3: extracellular region of CRTAM (domain or fragment)
chain: SLTNHTETITVEEGQTLTLKCVTSLRKNSSLQWLTPSGFTIFLNEYPALKNSKYQLLHHSANQLSITVPNVTLQDEGVYKCLHYSDSVSTKEVKVIVLATPFKPILEASVIRKQNGEEHVVLMCSTMRSKPPPQITWLLGNSMEVSGGTLHEFETDGKKCNTTSTLIIHTYGKNSTVDCIIRHRGLQGRKLVAPFRFEDLVTDEETASDALERNSLSSQDPQQPTSTVSVTEDSSTSEIDKEEKEQTTQDPDLTTEANPQYLGLARKKSG
B4: FtsB (natural protein)
chain: MGKLTLLLLAILVWLQYSLWFGKNGIHDYTRVNDDVAAQQATNAKLKARNDQLFAEIDDLNGGQEALEERARNELSMTRPGETFYRLVPDASKRAQSAGQNNR

Legend:
[1] = molecular target: B2; experiment: crystal structure
[2] = molecular target: T1, urease accessory protein UreH; experiment: crystal structure
[3] = molecular target: the molecule itself; experiment: crystal structure
[4] = molecular target: T2, extracellular region of Nectin-Like 2; experiment: SPR
[5] = molecular target: T3, FtsL; experiment: FRET or BRET + other: single molecule photobleaching

## B1
[1]
  binding result: binds

## B2
[2]
  binding result: binds
[3]
  binding result: binds

## B3
[4]
  Kd: 37.2 nM

## B4
[5]
  stoichiometry N: 1 FtsB per FtsL
